Positions count from the first letter of the chain named. Numbers in names are those of the source.
B1: PR006239 (antibody, human IgG1, kappa)
heavy: QVQLVQSGAEVKKPGASVKVSCKASGYTFAGYYMYWVRQAPGQGLEWMGWINPDSGAPTYAQKFQGRVTMTRDTSISTAYMELSRLRSDDTAVYYCAREKIYYGSGNYYPSFDYWGQGTLVTVSSASTKGPSVFPLAPSSKSTSGGTAALGCLVKDYFPEPVTVSWNSGALTSGVHTFPAVLQSSGLYSLSSVVTVPSSSLGTQTYICNVNHKPSNTKVDKKVEPKSCDKTHTCPPCPAPEAAGAPSVFLFPPKPKDTLMISRTPEVTCVVVDVSHEDPEVKFNWYVDGVEVHNAKTKPREEQYNSTYRVVSVLTVLHQDWLNGKEYKCKVSNKALPAPIEKTISKAKGQPREPQVYTLPPSREEMTKNQVSLTCLVKGFYPSDIAVEWESNGQPENNYKTTPPVLDSDGSFFLYSKLTVDKSRWQQGNVFSCSVMHEALHNHYTQKSLSLSPGK
light: DIQLTQSPSFLSASVGDRVTITCRASQGISSYLAWYQQKPGKAPKLLIYAASTLQSGVPSRFSGSGSGTEFTLTISSLQPEDFATYYCQQLNSYPWTFGQGTKVEIKRTVAAPSVFIFPPSDEQLKSGTASVVCLLNNFYPREAKVQWKVDNALQSGNSQESVTEQDSKDSTYSLSSTLTLSKADYEKHKVYACEVTHQGLSSPVTKSFNRGEC
notes: Variable regions of PR003379 on human IgG1 with L234A, L235A, G237A; no mutation in the variable region
B2: PR006510 (antibody, human IgG1, kappa, V domains shown)
VH: QVQLVQSGAEVKKPGASVKVSCKASGYTFAGYYMYWVRQAPGQGLEWMGWINPDSGAPTYAQKFQGRVTMTRDTSISTAYMELSRLRSDDTAVYYCAREKIYYGSGNYYPSFDYWGQGTLVTVSS
VL: DIQLTQSPSFLSASVGDRVTITCRASQGISSYLAWYQQKPGKAPKLLIYAASTLQSGVPSRFSGSGSGTEFTLTISSLQPEDFATYYCQQLNRYPWTFGQGTKVEIKR
notes: PR003379 variant L:S93R; human IgG1 L234A, L235A, G237A
B3: PR006496 (antibody, human IgG1, kappa, V domains shown)
VH: B2 VH
VL: B2 VL with N92F, R93S
notes: PR003379 variant L:N92F; human IgG1 L234A, L235A, G237A
B4: PR006502 (antibody, human IgG1, kappa, V domains shown)
VH: B2 VH
VL: B2 VL with N92D, R93S
notes: PR003379 variant L:N92D; human IgG1 L234A, L235A, G237A
B5: PR006499 (antibody, human IgG1, kappa, V domains shown)
VH: B2 VH
VL: B2 VL with N92W, R93S
notes: PR003379 variant L:N92W; human IgG1 L234A, L235A, G237A
B6: PR006495 (antibody, human IgG1, kappa, V domains shown)
VH: B2 VH
VL: B2 VL with N92A, R93S
notes: PR003379 variant L:N92A; human IgG1 L234A, L235A, G237A
B7: PR006498 (antibody, human IgG1, kappa, V domains shown)
VH: B2 VH
VL: B2 VL with N92I, R93S
notes: PR003379 variant L:N92I; human IgG1 L234A, L235A, G237A
B8: PR006500 (antibody, human IgG1, kappa, V domains shown)
VH: B2 VH
VL: B2 VL with N92M, R93S
notes: PR003379 variant L:N92M; human IgG1 L234A, L235A, G237A
B9: PR006504 (antibody, human IgG1, kappa, V domains shown)
VH: B2 VH
VL: B2 VL with N92V, R93S
notes: PR003379 variant L:N92V; human IgG1 L234A, L235A, G237A
B10: PR006497 (antibody, human IgG1, kappa, V domains shown)
VH: B2 VH
VL: B2 VL with N92Y, R93S
notes: PR003379 variant L:N92Y; human IgG1 L234A, L235A, G237A
B11: PR006514 (antibody, human IgG1, kappa, V domains shown)
VH: B2 VH
VL: B2 VL with R93V
notes: PR003379 variant L:S93V; human IgG1 L234A, L235A, G237A
B12: PR006513 (antibody, human IgG1, kappa, V domains shown)
VH: B2 VH
VL: B2 VL with R93Q
notes: PR003379 variant L:S93Q; human IgG1 L234A, L235A, G237A
B13: PR006512 (antibody, human IgG1, kappa, V domains shown)
VH: B2 VH
VL: B2 VL with R93T
notes: PR003379 variant L:S93T; human IgG1 L234A, L235A, G237A
B14: PR006516 (antibody, human IgG1, kappa, V domains shown)
VH: B2 VH
VL: B2 VL with R93H
notes: PR003379 variant L:S93H; human IgG1 L234A, L235A, G237A

The binders below were run against T1, human CD40 on cells (human, UniProt P25942 21-277) (assay: cell-based or functional assay).
T1 sequence (P25942 21-277): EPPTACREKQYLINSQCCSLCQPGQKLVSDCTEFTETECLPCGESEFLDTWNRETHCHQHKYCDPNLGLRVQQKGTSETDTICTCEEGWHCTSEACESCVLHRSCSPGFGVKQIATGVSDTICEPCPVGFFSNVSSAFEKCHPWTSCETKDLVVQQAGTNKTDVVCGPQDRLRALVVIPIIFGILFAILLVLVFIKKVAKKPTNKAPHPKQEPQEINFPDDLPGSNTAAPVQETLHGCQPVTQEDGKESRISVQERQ

Row | EC50 (nM), crosslinked, HEK293-hCD40-NFkB reporter | EC50 (nM), uncrosslinked, HEK293-hCD40-NFkB reporter | Fold (EC50 in the absence of crosslinking/EC50 in the presence of crosslinking) | Maximum fold (fold), crosslinked | Maximum fold (fold), uncrosslinked | Binder
1 | 0.098 nM | 0.173 nM | 1.77 fold | 5.76 fold | 4.58 fold | B1
2 | 0.0423 nM | 0.125 nM | 2.96 fold | 4.66 fold | 4.54 fold | B2
3 | 0.217 nM | 0.43 nM | 1.98 fold | 5.03 fold | 4.43 fold | B3
4 | 0.17 nM | 0.321 nM | 1.88 fold | 4.95 fold | 4.63 fold | B4
5 | 0.405 nM | 1.04 nM | 2.58 fold | 5.28 fold | 3.92 fold | B5
6 | 0.109 nM | 0.905 nM | 8.28 fold | 5.54 fold | 4.92 fold | B6
7 | 0.196 nM | 0.462 nM | 2.36 fold | 5.53 fold | 4.4 fold | B7
8 | 0.169 nM | 0.301 nM | 1.78 fold | 5.55 fold | 4.33 fold | B8
9 | 0.157 nM | 0.708 nM | 4.5 fold | 5.21 fold | 4.7 fold | B9
10 | 0.158 nM | 0.479 nM | 3.03 fold | 4.77 fold | 4.61 fold | B10

The binders below were run against T1, human CD40 on cells (assay: FACS, Raji cells).
Text: (§1) Flow cytometry (FACS) was used to detect the binding ability of the CD40 antibody to cells, such as, CHO-K1/hCD40 highly expressing human CD40 (constructed by Beijing Kyinno Biotechnology), CHO-K1/cyCD40 highly expressing cynomolgus monkey CD40 (constructed by Beijing Kyinno Biotechnology) and lymphoma cell highly expressing human CD40, Raji (ATCC, #CCL-86). Specifically, the cells were digested and resuspended with complete medium (F-12K for CHO-K1 cells; and RPMI-1640 for Raji cells); and the cells were adjusted to a cell density of 1×10⁶ cells/mL. The cells were seeded in a 96-well V-bottom plate (Corning, #3894) at 100 μL/well, and the antigen binding protein to be tested at 2x final concentration was then added at 100 μL/well and mixed evenly, with the highest final concentration of the antigen binding protein of 300 nM, a total of 8 concentrations, and 5-fold concentration gradient dilution. hIgG (Crownbio, #C0002) was used as a negative control, and the positive control molecule was the molecule in Table 1-5. The cells were incubated at 4° C. for 1 hours in the dark. After the incubation, the cells were rinsed twice by adding pre-chilled PBS at 100 μL/well, and centrifuged at 500 g at 4° C. for 5 minutes, and the supernatant was discarded. Then, a fluorescent secondary antibody (goat anti-human IgG (H+L) secondary antibody, Alexa Fluor® 488 conjugate, Invitrogen, #A11013, 1:1000 dilution) was added at 100 µL/well, and the cells were incubated at 4° C. for 30 minutes in the dark. The cells were washed twice with pre-chilled PBS at 200 μL/well, and centrifuged at 500 g at 4° C. for 5 minutes, and the supernatant was discarded. Finally, the cells were resuspended in pre-chilled PBS at 200 μL/well. The fluorescence signal values were read using a BD FACS CANTOII flow cytometer or ACEA NovoCyte flow cytometer, and the data were processed and analyzed using FlowJo v10 software (FlowJo, LLC).
(§2) Data processing and graphical analysis were performed using GraphPad Prism 8 software. The binding curve of the antibody to the target cell and parameters, such as EC50 value were obtained by four-parameter nonlinear fitting.

Row | EC50 | Maximum MFI | Binder
11 | 0.332 nM | 9050 MFI | B1
12 | 0.376 nM | 12400 MFI | B2
13 | 0.277 nM | 9300 MFI | B3
14 | 0.455 nM | 12000 MFI | B11
15 | 0.287 nM | 9040 MFI | B4
16 | 0.301 nM | 8980 MFI | B5
17 | 0.356 nM | 8870 MFI | B6
18 | 0.344 nM | 8980 MFI | B7
19 | 0.351 nM | 8980 MFI | B8
20 | 0.35 nM | 12200 MFI | B9
21 | 0.373 nM | 12000 MFI | B12
22 | 0.424 nM | 12100 MFI | B13
23 | 0.351 nM | 8900 MFI | B14
24 | 0.252 nM | 9200 MFI | B10

The binders below were run against T1, human CD40 on cells (assay: FACS, CHO-K1/hCD40 cells).
Text: as §1, §2

Row | EC50 | Maximum MFI | Binder
25 | 6.67 nM | 88600 MFI | B1
26 | 4.98 nM | 83000 MFI | B2
27 | 4.8 nM | 88200 MFI | B3
28 | 5.08 nM | 86900 MFI | B11
29 | 4.55 nM | 88500 MFI | B4
30 | 4.65 nM | 84200 MFI | B5
31 | 4.9 nM | 79400 MFI | B6
32 | 4.97 nM | 77700 MFI | B7
33 | 5.01 nM | 85900 MFI | B8
34 | 4.87 nM | 86000 MFI | B9
35 | 7.51 nM | 89200 MFI | B12
36 | 5.18 nM | 81600 MFI | B13
37 | 5.08 nM | 86100 MFI | B14
38 | 5.09 nM | 92300 MFI | B10

These binders were tested against T2, cynomolgus monkey CD40 on cells (cynomolgus monkey, UniProt G7PG38 21-278) (assay: FACS, CHO-K1/cyCD40 cells).
T2 construct: also called cyCD40; CHO-K1/cyCD40
Text: as §1, §2

T2 sequence (G7PG38 entry or part of it limits assumed): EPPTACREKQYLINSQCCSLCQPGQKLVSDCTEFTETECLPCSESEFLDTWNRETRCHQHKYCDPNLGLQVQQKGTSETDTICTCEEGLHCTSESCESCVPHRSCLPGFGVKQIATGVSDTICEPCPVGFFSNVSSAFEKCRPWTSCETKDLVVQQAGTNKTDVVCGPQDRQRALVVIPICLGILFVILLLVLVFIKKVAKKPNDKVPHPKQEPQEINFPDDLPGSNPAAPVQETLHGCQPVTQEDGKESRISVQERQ

Row | EC50 | Maximum MFI | Binder
39 | 4.41 nM | 51800 MFI | B1
40 | 4.55 nM | 44300 MFI | B2
41 | 3.5 nM | 49700 MFI | B3
42 | 4.23 nM | 45100 MFI | B11
43 | 3.96 nM | 47700 MFI | B4
44 | 3.2 nM | 49800 MFI | B5
45 | 4.41 nM | 48000 MFI | B6
46 | 4.04 nM | 47300 MFI | B7
47 | 4.4 nM | 48500 MFI | B8
48 | 3.71 nM | 51000 MFI | B9
49 | 3.56 nM | 40200 MFI | B12
50 | 4.55 nM | 45800 MFI | B13
51 | 5.29 nM | 51400 MFI | B14
52 | 3.54 nM | 51700 MFI | B10
